# Test results from patent US20210388074A1 (LUDWIG INSTITUTE FOR CANCER RESEARCH, published 2021).
# Where a chain is given by its changes, count along the chain named. Names may count otherwise.
# T1: human recombinant TGF-b3 (Shenandoah Biotechnology, cat. #100-109) (human, UniProt P10600 301-412)
# T1 construct: Bought recombinant protein, coated on ELISA plates; also called TGF-β3; hTGF-ß3
# T1 sequence: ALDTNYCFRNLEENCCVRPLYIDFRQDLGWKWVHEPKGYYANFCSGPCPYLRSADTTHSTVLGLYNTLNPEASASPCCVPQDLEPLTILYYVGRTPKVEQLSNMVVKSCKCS
# T2: TGFb3 (species not stated) (UniProt P10600 301-412)
# T2 chain: T1 sequence
# T3: TGFb3 (species not stated) (Homo sapiens (Human), UniProt P10600 301-412)
# T3 construct: also called TGFβ3; TGF-β3
# T3 sequence: T1 sequence
# B1: LCR1901_scFv (murine 1901 VH and VL reformatted as soluble scFv) (scFv)
# scFv: SFVMTQTPKFLLVSAGDRVTITCKASQSVINAVAWYQQKPGQSPKLLIYYASNRYTGVPDRFTGNGYGTDFTFTISTVQAEDLAVYFCQQDYSSPYTFGGGTKLEIKRTVAARQEGGSGEGGSGESNAAAQVLLQQSGPELVKPGASVKISCKASGYAFSSSWIHWVKQRPGKGLEWIGRIYPGDGDTNYTGKFKGKATLTADKSSSTAYMQLSSLTSEDSAVYFCARRMITTQAAMDYWGQGTSVTVSSASTKAS
# notes: Expressed in E. coli from pCHV101 and tested as culture; also called LCR1901_soluble scFv; parental soluble scFv
# B2: LCR1901_Phage (murine 1901 scFv fused to the pIII coat protein of filamentous bacteriophage) (scFv)
# scFv: B1 scFv
# notes: not shown: pIII coat protein of filamentous bacteriophage from the pCHV101 phagemid
# B3: 1901_Chimeric (mouse 1901 variable domains fused to human IgG1 Fc) (antibody, V domains shown)
# VH: QVLLQQSGPELVKPGASVKISCKASGYAFSSSWIHWVKQRPGKGLEWIGRIYPGDGDTNYTGKFKGKATLTADKSSSTAYMQLSSLTSEDSAVYFCARRMITTQAAMDYWGQGTSVTVSS
# VL: SFVMTQTPKFLLVSAGDRVTITCKASQSVINAVAWYQQKPGQSPKLLIYYASNRYTGVPDRFTGNGYGTDFTFTISTVQAEDLAVYFCQQDYSSPYTFGGGTKLEIK
# notes: Tested as HEK293-6E supernatant; also called murine chimeras
# B4: 1901-1D Fab (LCR1901_VH_1G10m_03(K)-LCR1901_VK_GLv1_03(F) expressed as Fab) (Fab, V domains shown)
# VH: QVQLVQSGAEVKKPGSSVKVSCKASGYTFSSSWIHWVKQRPGKGLEWIGRIYPGDGDTDYSEKFQGRVTITADKSTSTAYMELSSLRSEDTAVYYCARRMITTQAALDYWGQGTLVTVSS
# VL: DIQMTQSPSSLSASVGDRVTITCKASQSVINAVAWYQQKPGQSPKLLIYYASNRYTGVPDRFSGSGYGTDFTFTISSLQAEDVAVYYCQQDYSSPYTFGGGTKVEIK
# B5: 1901-1B Fab (LCR1901_VH_1G10m_03(K)-LCR1901_VK_GLv1_05(H) expressed as Fab) (Fab, V domains shown)
# VH: B4 VH
# VL: B4 VL with Q42K, S43A
# B6: 1901-1C Fab (LCR1901_VH_1G10m-LCR1901_VK_GLv1_03(F) expressed as Fab) (Fab, V domains shown)
# VH: B4 VH with K38R, R40A, K43Q
# VL: B4 VL
# B7: 1901_Glv1 (graft) human IgG1 (antibody, V domains shown)
# VH: B4 VH with T28A, K38R, R40A, K43Q, D59N, S61T, E62G, Q65K, L107M, L115S
# VL: B4 VL with Q42K, S43A, D60S, Y67S, F73L, A80P, V83F, V85T
# notes: Tested as HEK293-6E supernatant; also called LCR1901_GLv1 mAb (IgG1)
# B8: 1901-1A, LCR1901_VH_1G10m-LCR1901_VK_GLv1_05(H), human IgG4 (S228P) (antibody, V domains shown)
# VH: B4 VH with K38R, R40A, K43Q
# VL: DIQMTQSPSSLSASVGDRVTITCKASQSVINAVAWYQQKPGKAPKLLIYYASNRYTGVPDRFSGSGYGTDFTFTISSLQAEDVAVYYCQQDYSSPYTFGGGTKVEIKR
# notes: the latter are used; also called LCR1901-1A
# B9: 1901-1A Fab (LCR1901_VH_1G10m-LCR1901_VK_GLv1_05(H) expressed as Fab) (Fab, V domains shown)
# VH: B4 VH with K38R, R40A, K43Q
# VL: B4 VL with Q42K, S43A
# B10: 1901-1D, LCR1901_VH_1G10m_03(K)-LCR1901_VK_GLv1_03(F), human IgG4 (S228P) (antibody, V domains shown)
# VH: B4 VH
# VL: B8 VL with K42Q, A43S
# notes: the latter are used; also called LCR1901-1D
# B11: 1901-1C, LCR1901_VH_1G10m-LCR1901_VK_GLv1_03(F), human IgG4 (S228P) (antibody, V domains shown)
# VH: B4 VH with K38R, R40A, K43Q
# VL: B8 VL with K42Q, A43S
# notes: also called LCR1901-1C
# B12: LCR1901_GLv1_scFv (murine 1901 CDRs grafted onto IGKV1-39*01/IGHV1-69*08, scFv) (scFv)
# scFv: DIQMTQSPSSLSASVGDRVTITCKASQSVINAVAWYQQKPGKAPKLLIYYASNRYTGVPSRFSGSGSGTDFTLTISSLQPEDFATYYCQQDYSSPYTFGGGTKLEIKRTVAARQEGGSGEGGSGESNAAAQVQLVQSGAEVKKPGSSVKVSCKASGYAFSSSWIHWVRQAPGQGLEWIGRIYPGDGDTNYTGKFKGRVTITADKSTSTAYMELSSLRSEDTAVYYCARRMITTQAAMDYWGQGTSVTVSSASTKAS
# notes: Expressed in E. coli from pCHV101
# Columns and labels:
# [1] = target: T1, human recombinant TGF-b3 (Shenandoah …); experiment: ELISA; scFv culture on plate-coated TGF-b3, anti-cmyc detection
# Procedure: (§1) To perform the ELISA a 96-well maxisorp Nunc-immunoplate (Thermo Scientific, cat. #2022-10) was coated with 50 μl/well of human recombinant TGF-b1 (Acrobiosystems, cat. #TG1-H4212), TGF-b2 (R&D Systems, cat. #302-B2-010) and human recombinant TGF-b3 (Shenandoah Biotechnology, cat. #100-109) at 500 ng/ml in PBS at 4° C. overnight. Wells were blocked by the direct addition of 230 μl of block solution (5% skimmed milk/0.05% Tween20 in PBS) without first washing the plate. Blocking was carried out for 45 min with gentle agitation. Concurrently, the bacterial cultures containing the expressed scFv and the rescued phage were blocked by the direct addition of 120 μl of block solution. The blocked maxisorp plate was washed 3× with PBST (PBS+0.1% Tween20) before applying 150 μl of blocked scFv or phage culture to the wells. Incubation was performed for 1 h at room temperature with gentle agitation before washing of the wells with 4×PBST.
# (§2) For the scFv ELISA, 100 μl of primary mouse 9E10 anti-cmyc Ab diluted 1/1000 in PBS+1% BSA was added to wells, followed by a 1 h incubation at room temperature with gentle agitation. […] The ELISA was developed by the addition of 100 μl/well of TMB substrate (ThermoFischer Scientific, cat. #34021), stabilized with 50 μl/well of stop solution (2N sulfuric acid) and absorbance signals read at 450 nm and 620 nm.
# [2] = target: T1, human recombinant TGF-b3 (Shenandoah …); experiment: phage ELISA on plate-coated TGF-b3, anti-fd bacteriophage detection
# Procedure: as §1
# For the phage ELISA, 100 μl of primary rabbit anti-fd bacteriophage Ab (Sigma, cat. #B7786) diluted 1/1000 in PBS+1% BSA was added to wells followed by a 1 h incubation at room temperature with gentle agitation. The plate was washed 4× with PBST before the addition of 100 μl of secondary mouse anti-rabbit IgG (Υ-chain specific) HRP conjugate (Sigma, cat. #A1949) diluted 1/15000 in PBS+1% BSA. […]
# [3] = target: T1, human recombinant TGF-b3 (Shenandoah …); experiment: TGFβ specificity ELISA; HEK293-6E supernatant
# [4] = target: T2, TGFb3 (species not stated); experiment: Biacore single-cycle kinetics
# [5] = target: T3, TGFb3 (species not stated); experiment: SPR (Biacore), single-cycle kinetics; TGFb3 immobilized directly, Fab as soluble analyte
# Procedure: TGFb3 immobilized directly; Fab as soluble analyte (0 2.5 nM). Single cycle kinetics were conducted as follows Contact: 360 s; Dissociation: 500 s; Flow rate: 30 μl/min.
# Binding affinities of the Fabs were in the pM range.
# [6] = target: T1, human recombinant TGF-b3 (Shenandoah …); experiment: competition ELISA on hTGF-ß3-coated plate; competitor biotinylated murine 1901
# Procedure: Nunc Maxisorb ELISA plates were coated overnight at 8° C. with 0.5 μg/ml hTGF-ß1 (Peter Sun, NIH) or hTGF-ß3 (Shenandoah Biotech) at 0.5 μg/ml in 40 mM glycine buffer pH 9. Plates were washed and blocked with 10% FCS for 1 h at 37° C. […] After incubation for 2h at 37° C. plates were washed, Avidine-HRP added and incubated for 1 h at 37° C. Plates washed again, TMB substrate was added and bound biotinylated antibody was quantitated by measuring color development in an ELISA reader at a wave length of 450 nm.
# The potency of the humanized LCR1901 IgG4 antibody variants to compete with the parental murine antibody for binding to TGFb3 was assessed by ELISA.
# [7] = target: T1, human recombinant TGF-b3 (Shenandoah …); experiment: ELISA; scFv culture on plate-coated TGF-b3
# Procedure: as §1, §2
binder,measurement,setting,value
B1,binding result,[1],binds
B2,binding result,[2],binds
B3,binding result,[3],binds
B4,Kd,[4],0.364 nM
same,binding result,[5],binds
B5,Kd,[4],0.285 nM
B6,Kd,[4],0.3 nM
same,binding result,[5],binds
B7,binding result,[3],binds
B8,binding result,[6],binds
B9,binding result,[5],binds
B10,binding result,[6],binds
B11,binding result,[6],binds
B12,binding result,[7],binds
